Source: patent publication US20190276523A1

B1: HuG6.3 (format not stated, Octet-Red assay) (antibody, V domains shown)
VH: QVQLVQSGAEVVKPGASVKVSCKASGYTFTSYWMHWVKQAPGQGLEWIGAVSPGNSDTSYNEKFKGKATLTVDKSASTAYMELSSLRSEDTAVYYCTRSRYGNNALDYWGQGTLVTVS
VL: DIQLTQSPSSLSASVGDRVTITCRASQGISSNIVWLQQKPGKAPKGLIYHGTNLESGVPSRFSGSGSGTDYTLTISSLEPEDFATYYCVQYSQFPPTFGQGTKLEIK
B2: MuG6 antibody (format in the CDC and ADCC assays not stated) (antibody, V domains shown)
VH: QVQLQQSGTVLARPGASVKMSCKASGYTFTSYWMHWVKQRPGQGLEWIGAVSPGNSDTSYNQKFKGKATLTAVTSTSTAYMEFSSLTNEDSAVYYCTRSRYGNNALDYWGQGTTVTVSS
VL: DIELTQSPSSMSVSLGDTVNITCRASQGISSNIVWLQQKPGKSFKGLIYHGTNLEDGVPSRFSGSGSGADYSLTISSLESEDFADYYCVQYSQFPPTFGSGTKLELK
modifications: APC-conjugated in the flow cytometry of FIG.11C

Experiments:
[1] = target: F43 scFv-Fc (human) [IgG part: P01857]; assay: Octet-Red biolayer interferometry, SA sensor tips, 2:1 model; reference pair HuG6.3 and D80 scFv-Fc
[2] = target: F70 scFv-Fc-CD28-gp41 expressed on 293T cells (human; HIV-1) [IgG part: P01857]; assay: cell-based or functional assay
[3] = target: F43 scFv-Fc-CD28-gp41 expressed on 293T cells (human; HIV-1) [IgG part: P01857]; assay: cell-based or functional assay
[4] = target: D80 scFv-Fc-CD28-gp41 expressed on 293T cells (human; HIV-1) [IgG part: P01857]; assay: cell-based or functional assay
[5] = target: F70 scFv-Fc-CD28-gp41 expressed on 293T cells (human; HIV-1) [IgG part: P01857]; assay: flow cytometry, 293T-F70 cells stained with APC-conjugated MuG6
[6] = target: 11A scFv-Fc-CD28-gp41 expressed on 293T cells (human; HIV-1) [IgG part: P01857]; assay: flow cytometry, 293T-11A cells stained with APC-conjugated MuG6
[7] = target: D80 scFv-Fc-CD28-gp41 expressed on 293T cells (human; HIV-1) [IgG part: P01857]; assay: flow cytometry, 293T-D80 cells stained with APC-conjugated MuG6
[8] = target: F43 scFv-Fc-CD28-gp41 expressed on 293T cells (human; HIV-1) [IgG part: P01857]; assay: flow cytometry, 293T-F43 cells stained with APC-conjugated MuG6

Binder	fold increase in binding affinity compared to D80 scFv-Fc [1]	fold slower Koff compared to D80 scFv-Fc [1]	fold slower Kon compared to D80 scFv-Fc [1]	CDC, percent of target cells killed (LDH release, rabbit serum) (% of target cells killed) [2]	CDC, percent of target cells killed (LDH release, rabbit serum) (% of target cells killed) [3]	CDC, percent of target cells killed (LDH release, rabbit serum) (% of target cells killed) [4]	% of cells in Q2 (ZsGreen+, G6-id+) [5]	% of cells in Q3 (ZsGreen-, G6-id+) [5]	% of cells in Q3 (ZsGreen-, G6-id+) [6]	% of cells in Q2 (ZsGreen+, G6-id+) [7]	% of cells in Q3 (ZsGreen-, G6-id+) [7]	% of cells in Q2 (ZsGreen+, G6-id+) [8]	% of cells in Q3 (ZsGreen-, G6-id+) [8]
B1	50 fold	600 fold	3.5 fold										
B2				20	20	20	44%	6.15%	0.097%	43.3%	5.28%	41.3%	9.11%
